From patent US20110165145A1, “IGF-II/IGF-IIE BINDING PROTEINS” (priority 2008, published 2011)

Assays:
[1] = biological target: T1, IGF-II (Homo sapiens, UniProt P01344); assay: IGF-II stimulated Ba/F3 cell proliferation, sFabs (MTS assay); format: cell-based; settings: 72 h
T1 construct: IGF-II (amino acids 1-67)
Experimental: (§1) Ba/F3 cells were cultured in complete medium (90% RPMI 1640+10% FBS+10 ng/ml IL-3+2 mM L-Alanyl-Glutamine+1×Pen/Strep). Cells at passage 6 to 15 were used for the high throughput cell proliferation assay. IGF-II (67aa), IGF-IIE (104aa) were at 10 μg/ml in PBS, kept at −70° C. IL-4 was purchased from R&D system, Cat#: 404-ML, and anti-IGF-II antibody was purchased from R&D system, Cat#: MAB292. 34 sFabs from batch 1 and batch 2 in a median scale purification, all in PBS, were screened.
(§2) IGF-II was prepared at concentration of 400 ng/ml; IGF-IIE at 800 ng/ml; sFab at 200 μg/ml in PBS. 25 μl of IGF-II or IGF-IIE was preincubated with 25 μl of sFab in 96-well plate, triplicate for each sFab, 30 min at room temperature in a total volume of 50 μl/well. […]
(§3) The MTS assay was performed as follows: • Add 20 μl of CellTiter 96 Aqueous One Solution Reagent to each well • Incubate at 37° C., 5% CO2 for additional 4 h. • Read plate for absorbance at a microplate spectrophotometer at wavelength 490 nm. […]
(§4) MTS Assay: • Add 20 μl of CellTiter 96 Aqueous One Solution Reagent to each well • Incubate at 37° C., 5% CO2 for additional 4 h. • Read plate for absorbance at a microplate spectrophotometer at wavelength 490 nm.

[2] = biological target: T2, IGF-IIE (Homo sapiens, UniProt P01344); assay: IGF-IIE stimulated Ba/F3 cell proliferation, sFabs (MTS assay); format: cell-based; settings: 72 h
T2 construct: the construct comprising amino acids 1-104, which encompass the E domain
Experimental: as §1, §2, §3, §4

[3] = biological target: T2, IGF-IIE; assay: Affinity measurements of IgGs by SPR (BIACORE), IGF-IIE; format: binding; settings: IgG

T2 sequence (P01344 25-128): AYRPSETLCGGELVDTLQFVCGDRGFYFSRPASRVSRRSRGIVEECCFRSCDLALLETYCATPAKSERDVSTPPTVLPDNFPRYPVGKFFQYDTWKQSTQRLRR
T1 sequence (P01344 25-91): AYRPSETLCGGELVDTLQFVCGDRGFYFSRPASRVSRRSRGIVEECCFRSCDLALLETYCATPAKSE

B1: M0068-E03: human anti-IGF-II/IGF-IIE Fab from phage display library (protein)
light: QDIQMTQSPSSLSASVGDRVTITCRASQSINTYLNWYQQKPGKAPKVLIHAASTLESGVPSRFSGSGSATEFTLTISSLQPEDFATFYCQQSYSVPFTFGPGTRLSSKRTVAAPSVFIFPPSDEQLKSGTASVVCLLNNFYPREAKVQWKVDNALQSGNSQESVTEQDSKDSTYSLSSTLTLSKADYEKHKVYACEVTHQGLSSPVTKSFNRGEC
heavy: EVQLLESGGGLVQPGGSLRLSCAASGFTFSEYVMAWVRQAPGKGLEWVSSIVSSGGYTKYADSVKGRFTISRDNSKNTLYLQMNSLRAEDTAVYYCAKDMTYSGDAFDVWGQGTMVTVSSASTKGPSVFPLAPSSKSTSGGTAALGCLVKDYFPEPVTVSWNSGALTSGVHTFPAVLQSSGLYSLSSVVTVPSSSLGTQTYICNVNHKPSNTKVDKKVEPKSCAAAHHHHHHGAAEQKLISEEDLNGAAEASSASNA
**Q.** With B1 as the molecule, how does the “inhibitory effect on IGF-II stimulated Ba/F3 cell proliferation (screening)” value ([1]; sFab 50 μg/ml (1 μM), MTS) read?
**A.** Its value is “significant inhibitory effect”.

**Q.** What about the “inhibitory effect on IGF-II stimulated Ba/F3 cell proliferation (dose response, in words)” value ([1]; sFab 50 μg/ml down to 0) of the same molecule?
**A.** Its value is “significant inhibitory effect”.

**Q.** And the “inhibitory effect on IGF-IIE stimulated Ba/F3 cell proliferation (screening)” value ([2]; sFab 50 μg/ml (1 μM), MTS)?
**A.** Its value is “significant inhibitory effect”.

**Q.** And the “inhibitory effect on IGF-IIE stimulated Ba/F3 cell proliferation (dose response, in words)” value ([2]; sFab 50 μg/ml down to 0)?
**A.** Its value is “significant inhibitory effect”.

B2: X0005-H01: germlined IgG counterpart of M0064-E04 in Table 6 (antibody, V domains shown)
VH: EVQLLESGGGLVQPGGSLRLSCAASGFTFSVYDMNWVRQAPGKGLEWVSSISSSGGGTLYADSVKGRFTISRDNSKNTLYLQMNSLRAEDTAVYYCARDSDTSSYYWYYDLWGRGTLVTVSS
VL: DIQMTQSPSSLSASVGDRVTITCQASHDISNYLNWYQQKPGKAPKLLIYAASRLQSGVPSRFSGSGSGTDFTLTISSLQPEDFATYYCQQSYSFPRTFGQGTRLEIK
**Q.** With B2 as the molecule, how does the Kd [3] read?
**A.** The Kd was 260 pM.
